Measurements as given in patent US20180155451A1 (published 2018).
Changes are numbered by the printed parent chain.

T1: FcγRIIa R (extracellular domain with a His tag at the C terminus) (human, UniProt P12318 34-217)
T1 construct: extracellular domain; expressed in FreeStyle293 cells; also called FcgRIIa R; FcγRIIa type R; not shown: His tag at the C terminus
T1 sequence (looked up): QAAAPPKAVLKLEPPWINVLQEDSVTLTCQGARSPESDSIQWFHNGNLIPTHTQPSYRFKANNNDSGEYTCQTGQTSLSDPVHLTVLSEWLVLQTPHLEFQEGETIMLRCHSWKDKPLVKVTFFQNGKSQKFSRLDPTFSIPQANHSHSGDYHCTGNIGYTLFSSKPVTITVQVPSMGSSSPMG

T2: FcγRIIa H (human, UniProt P12318 34-217)
T2 construct: extracellular domain; also called FcgRIIa H type; 2aH; not shown: His tag at the C terminus
T2 sequence (looked up): T1 sequence (looked up) with R134H

B1: GpH7-B3 variant S337_02A/GpL16-k0 (antibody, human IgG1, kappa)
heavy: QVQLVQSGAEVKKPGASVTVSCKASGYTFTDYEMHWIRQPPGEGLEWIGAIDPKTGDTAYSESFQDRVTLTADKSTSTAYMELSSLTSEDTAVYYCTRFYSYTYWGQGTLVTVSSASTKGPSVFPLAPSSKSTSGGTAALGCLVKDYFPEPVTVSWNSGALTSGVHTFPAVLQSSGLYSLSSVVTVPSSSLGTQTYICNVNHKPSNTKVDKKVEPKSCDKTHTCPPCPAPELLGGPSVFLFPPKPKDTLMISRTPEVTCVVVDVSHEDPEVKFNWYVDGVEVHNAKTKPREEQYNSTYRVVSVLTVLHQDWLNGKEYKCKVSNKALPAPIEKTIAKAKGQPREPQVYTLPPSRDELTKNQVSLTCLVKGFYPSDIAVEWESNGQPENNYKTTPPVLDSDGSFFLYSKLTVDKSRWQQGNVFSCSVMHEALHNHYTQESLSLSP
light: DIVMTQSPLSLPVTPGEPASISCQASESLVHSNRNTYLHWYLQKPGQSPQLLIYKVSNRFSGVPDRFSGSGSGTDFTLKISRVEAEDVGVYYCSQNTHVPPTFGQGTKVEIERTVAAPSVFIFPPSDEQLKSGTASVVCLLNNFYPREAKVQWKVDNALQSGNSQESVTEQDSKDSTYSLSSTLTLSKADYEKHKVYACEVTHQGLSSPVTKSFNRGEC
notes: homodimerized; mutation in both H chains; also called Ho Ab
B2: GpH7-B3 variant I332_06M/GpL16-k0 (antibody, human IgG1, kappa)
heavy: not shown
light: B1 light
notes: as for B1
B3: GpH7-B3 variant A330_01G/GpL16-k0 (antibody, human IgG1, kappa)
heavy: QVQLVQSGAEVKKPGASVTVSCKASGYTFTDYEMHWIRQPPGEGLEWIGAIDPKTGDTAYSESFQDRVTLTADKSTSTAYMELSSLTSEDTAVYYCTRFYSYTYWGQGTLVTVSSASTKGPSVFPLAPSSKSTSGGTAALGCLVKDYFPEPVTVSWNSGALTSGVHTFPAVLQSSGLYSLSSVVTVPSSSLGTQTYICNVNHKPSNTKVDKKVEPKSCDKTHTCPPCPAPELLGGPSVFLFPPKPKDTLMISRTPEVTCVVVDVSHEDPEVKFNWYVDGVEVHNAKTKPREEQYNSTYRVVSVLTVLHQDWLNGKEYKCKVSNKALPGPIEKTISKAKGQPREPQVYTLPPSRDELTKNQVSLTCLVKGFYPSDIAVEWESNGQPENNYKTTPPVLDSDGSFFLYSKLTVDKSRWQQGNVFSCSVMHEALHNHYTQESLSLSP
light: B1 light
notes: as for B1
B4: GpH7-B3 variant A327_10E/GpL16-k0 (antibody, human IgG1, kappa)
heavy: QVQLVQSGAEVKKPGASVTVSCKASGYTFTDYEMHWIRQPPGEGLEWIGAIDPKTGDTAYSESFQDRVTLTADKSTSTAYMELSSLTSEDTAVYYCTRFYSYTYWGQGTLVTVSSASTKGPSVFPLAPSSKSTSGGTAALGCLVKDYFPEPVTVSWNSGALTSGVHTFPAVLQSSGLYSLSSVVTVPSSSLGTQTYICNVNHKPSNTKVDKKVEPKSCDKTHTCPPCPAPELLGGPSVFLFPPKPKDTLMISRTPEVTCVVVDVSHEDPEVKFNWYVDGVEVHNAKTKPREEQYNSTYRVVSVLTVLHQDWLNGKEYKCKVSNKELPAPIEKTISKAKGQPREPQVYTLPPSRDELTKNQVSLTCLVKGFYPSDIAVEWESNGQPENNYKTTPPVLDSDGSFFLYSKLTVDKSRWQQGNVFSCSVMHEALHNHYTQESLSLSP
light: B1 light
notes: as for B1
B5: GpH7-B3 variant K334_04F/GpL16-k0 (antibody, human IgG1, kappa)
heavy: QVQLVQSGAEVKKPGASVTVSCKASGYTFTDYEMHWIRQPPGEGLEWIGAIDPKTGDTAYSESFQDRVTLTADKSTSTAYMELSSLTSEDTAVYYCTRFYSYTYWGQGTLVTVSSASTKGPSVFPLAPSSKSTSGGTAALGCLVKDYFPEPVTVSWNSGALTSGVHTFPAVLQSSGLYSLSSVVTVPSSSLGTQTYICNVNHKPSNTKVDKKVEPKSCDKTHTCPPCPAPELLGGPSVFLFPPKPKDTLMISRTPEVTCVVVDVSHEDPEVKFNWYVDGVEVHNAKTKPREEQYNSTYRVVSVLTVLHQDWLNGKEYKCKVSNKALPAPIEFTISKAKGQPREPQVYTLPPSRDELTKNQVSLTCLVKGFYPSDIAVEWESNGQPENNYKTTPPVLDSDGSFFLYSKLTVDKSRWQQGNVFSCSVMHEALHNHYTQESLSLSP
light: B1 light
notes: as for B1
B6: GpH7-B3 variant K326_20W/GpL16-k0 (antibody, human IgG1, kappa)
heavy: not shown
light: B1 light
notes: as for B1
B7: GpH7-B3 variant A327_09D/GpL16-k0 (antibody, human IgG1, kappa)
heavy: not shown
light: B1 light
notes: as for B1
B8: GpH7-B3 variant K326_08L/GpL16-k0 (antibody, human IgG1, kappa)
heavy: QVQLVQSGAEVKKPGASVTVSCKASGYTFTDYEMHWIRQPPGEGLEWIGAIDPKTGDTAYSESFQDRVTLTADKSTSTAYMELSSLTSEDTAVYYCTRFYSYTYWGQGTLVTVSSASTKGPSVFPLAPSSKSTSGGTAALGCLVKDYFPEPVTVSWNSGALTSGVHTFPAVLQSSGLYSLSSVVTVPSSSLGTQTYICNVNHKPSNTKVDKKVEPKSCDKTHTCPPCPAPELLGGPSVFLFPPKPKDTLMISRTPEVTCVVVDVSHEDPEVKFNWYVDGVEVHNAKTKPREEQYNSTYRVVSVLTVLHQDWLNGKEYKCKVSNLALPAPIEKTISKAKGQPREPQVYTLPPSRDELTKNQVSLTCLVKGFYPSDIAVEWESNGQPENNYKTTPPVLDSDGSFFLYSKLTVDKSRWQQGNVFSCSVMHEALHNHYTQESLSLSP
light: B1 light
notes: as for B1
B9: GpH7-B3 variant K326_07I/GpL16-k0 (antibody, human IgG1, kappa)
heavy: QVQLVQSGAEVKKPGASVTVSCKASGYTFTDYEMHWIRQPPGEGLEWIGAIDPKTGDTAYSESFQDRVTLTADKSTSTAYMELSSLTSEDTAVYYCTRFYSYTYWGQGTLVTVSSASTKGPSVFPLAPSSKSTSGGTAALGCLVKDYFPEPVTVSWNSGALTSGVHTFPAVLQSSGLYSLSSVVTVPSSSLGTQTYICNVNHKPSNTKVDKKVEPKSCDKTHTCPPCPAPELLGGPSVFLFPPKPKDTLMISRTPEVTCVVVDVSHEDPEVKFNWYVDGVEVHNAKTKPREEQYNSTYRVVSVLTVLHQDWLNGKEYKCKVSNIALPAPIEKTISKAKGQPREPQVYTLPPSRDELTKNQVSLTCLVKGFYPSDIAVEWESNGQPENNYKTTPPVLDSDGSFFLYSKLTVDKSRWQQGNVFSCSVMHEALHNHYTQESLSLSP
light: B1 light
notes: as for B1
B10: GpH7-B3 variant G237_04F/GpL16-k0 (antibody, human IgG1, kappa)
heavy: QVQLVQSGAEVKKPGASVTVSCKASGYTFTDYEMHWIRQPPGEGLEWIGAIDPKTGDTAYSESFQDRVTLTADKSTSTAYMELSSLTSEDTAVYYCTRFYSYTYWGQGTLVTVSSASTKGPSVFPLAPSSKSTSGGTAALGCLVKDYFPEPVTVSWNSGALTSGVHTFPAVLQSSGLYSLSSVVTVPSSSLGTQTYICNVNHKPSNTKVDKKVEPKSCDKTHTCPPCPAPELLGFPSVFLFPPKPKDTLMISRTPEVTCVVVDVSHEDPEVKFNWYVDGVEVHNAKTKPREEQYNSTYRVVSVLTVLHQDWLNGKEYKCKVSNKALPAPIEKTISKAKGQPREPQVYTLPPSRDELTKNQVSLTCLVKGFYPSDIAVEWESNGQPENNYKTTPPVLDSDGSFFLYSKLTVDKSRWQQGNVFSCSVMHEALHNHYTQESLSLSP
light: B1 light
notes: as for B1
B11: GpH7-B3 variant I336_08L/GpL16-k0 (antibody, human IgG1, kappa)
heavy: not shown
light: B1 light
notes: as for B1
B12: GpH7-B3 variant K326_03V/GpL16-k0 (antibody, human IgG1, kappa)
heavy: not shown
light: B1 light
notes: as for B1
B13: GpH7-B3 variant K326_15Y/GpL16-k0 (antibody, human IgG1, kappa)
heavy: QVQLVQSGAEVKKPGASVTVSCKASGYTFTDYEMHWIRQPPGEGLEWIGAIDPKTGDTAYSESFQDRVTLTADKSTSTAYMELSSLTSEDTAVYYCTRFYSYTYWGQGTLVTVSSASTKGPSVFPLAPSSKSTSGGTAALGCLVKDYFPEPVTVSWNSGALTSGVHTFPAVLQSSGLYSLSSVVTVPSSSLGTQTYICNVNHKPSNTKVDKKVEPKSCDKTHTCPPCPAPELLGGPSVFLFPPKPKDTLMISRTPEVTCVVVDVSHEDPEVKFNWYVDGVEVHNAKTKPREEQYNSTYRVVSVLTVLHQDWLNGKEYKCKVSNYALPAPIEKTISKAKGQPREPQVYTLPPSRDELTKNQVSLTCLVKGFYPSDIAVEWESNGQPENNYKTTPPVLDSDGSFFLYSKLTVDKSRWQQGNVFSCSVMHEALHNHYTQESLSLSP
light: B1 light
notes: as for B1
B14: GpH7-B3 variant G237_20W/GpL16-k0 (antibody, human IgG1, kappa)
heavy: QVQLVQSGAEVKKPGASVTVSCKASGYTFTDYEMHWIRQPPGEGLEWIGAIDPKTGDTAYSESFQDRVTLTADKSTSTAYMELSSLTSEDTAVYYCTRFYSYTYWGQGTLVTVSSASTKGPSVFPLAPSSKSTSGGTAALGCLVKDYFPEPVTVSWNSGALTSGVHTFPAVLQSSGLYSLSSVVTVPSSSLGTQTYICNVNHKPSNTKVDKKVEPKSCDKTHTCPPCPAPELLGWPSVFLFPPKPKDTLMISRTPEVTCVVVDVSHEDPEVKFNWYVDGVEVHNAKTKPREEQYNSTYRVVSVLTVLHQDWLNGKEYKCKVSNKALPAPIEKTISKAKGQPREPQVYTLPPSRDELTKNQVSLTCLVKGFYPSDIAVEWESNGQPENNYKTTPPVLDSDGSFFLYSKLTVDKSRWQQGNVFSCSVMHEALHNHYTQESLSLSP
light: B1 light
notes: as for B1
B15: GpH7-B3 variant A330_12R/GpL16-k0 (antibody, human IgG1, kappa)
heavy: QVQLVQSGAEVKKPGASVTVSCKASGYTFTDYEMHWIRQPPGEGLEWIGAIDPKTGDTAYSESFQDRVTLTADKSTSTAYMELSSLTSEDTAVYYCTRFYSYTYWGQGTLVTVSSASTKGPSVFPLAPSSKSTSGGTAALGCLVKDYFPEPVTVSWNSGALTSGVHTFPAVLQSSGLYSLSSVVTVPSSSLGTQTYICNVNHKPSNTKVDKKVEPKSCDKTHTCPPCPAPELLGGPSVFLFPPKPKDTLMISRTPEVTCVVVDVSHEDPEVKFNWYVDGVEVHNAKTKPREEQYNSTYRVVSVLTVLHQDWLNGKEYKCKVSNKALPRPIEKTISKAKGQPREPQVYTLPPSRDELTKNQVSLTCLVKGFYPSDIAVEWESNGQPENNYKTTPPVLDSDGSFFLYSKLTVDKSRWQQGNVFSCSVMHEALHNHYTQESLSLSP
light: B1 light
notes: as for B1
B16: GpH7-B3 variant K334_02A/GpL16-k0 (antibody, human IgG1, kappa)
heavy: not shown
light: B1 light
notes: as for B1
B17: GpH7-B3 variant H268_01G/GpL16-k0 (antibody, human IgG1, kappa)
heavy: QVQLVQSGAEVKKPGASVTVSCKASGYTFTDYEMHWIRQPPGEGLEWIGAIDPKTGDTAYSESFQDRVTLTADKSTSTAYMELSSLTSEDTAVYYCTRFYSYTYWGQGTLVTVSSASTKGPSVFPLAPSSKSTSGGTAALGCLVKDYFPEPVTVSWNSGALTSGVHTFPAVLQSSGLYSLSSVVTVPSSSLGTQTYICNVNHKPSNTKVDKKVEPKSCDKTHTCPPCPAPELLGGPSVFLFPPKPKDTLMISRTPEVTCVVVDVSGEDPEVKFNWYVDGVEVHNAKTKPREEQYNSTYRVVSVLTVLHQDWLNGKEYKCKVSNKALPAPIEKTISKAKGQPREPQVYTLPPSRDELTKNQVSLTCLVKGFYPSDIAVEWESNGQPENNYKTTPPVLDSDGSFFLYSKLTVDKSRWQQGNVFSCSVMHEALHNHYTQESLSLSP
light: B1 light
notes: as for B1
B18: GpH7-B3 variant K326_04F/GpL16-k0 (antibody, human IgG1, kappa)
heavy: not shown
light: B1 light
notes: as for B1
B19: GpH7-A5/GpH7-B3 variant S324_02A/GpL16-k0 (antibody, human IgG1, kappa)
heavy 1: not shown
heavy 2: not shown
light: B1 light
notes: also called He Ab S324_02A
B20: GpH7-A5/GpH7-B3 variant T335_13S/GpL16-k0 (antibody, human IgG1, kappa)
heavy 1: not shown
heavy 2: not shown
light: B1 light
notes: also called He Ab T335_13S
B21: GpH7-A5/GpH7-B3 variant S324_06M/GpL16-k0 (antibody, human IgG1, kappa)
heavy 1: not shown
heavy 2: not shown
light: B1 light
notes: also called He Ab S324_06M
B22: GpH7-A5/GpH7-B3 variant K334_15Y/GpL16-k0 (antibody, human IgG1, kappa)
heavy 1: not shown
heavy 2: not shown
light: B1 light
notes: also called He Ab K334_15Y
B23: GpH7-A5/GpH7-B3 variant S324_10E/GpL16-k0 (antibody, human IgG1, kappa)
heavy 1: not shown
heavy 2: not shown
light: B1 light
notes: also called He Ab S324_10E
B24: GpH7-A5/GpH7-B3 variant S337_14T/GpL16-k0 (antibody, human IgG1, kappa)
heavy 1: not shown
heavy 2: not shown
light: B1 light
notes: also called He Ab S337_14T
B25: GpH7-A5/GpH7-B3 variant T335_15Y/GpL16-k0 (antibody, human IgG1, kappa)
heavy 1: not shown
heavy 2: not shown
light: B1 light
notes: also called He Ab T335_15Y
B26: GpH7-A5/GpH7-B3 variant L328_02A/GpL16-k0 (antibody, human IgG1, kappa)
heavy 1: not shown
heavy 2: not shown
light: B1 light
notes: also called He Ab L328_02A
B27: GpH7-A5/GpH7-B3 variant T335_10E/GpL16-k0 (antibody, human IgG1, kappa)
heavy 1: not shown
heavy 2: not shown
light: B1 light
notes: also called He Ab T335_10E
B28: GpH7-A5/GpH7-B3 variant K326_19Q/GpL16-k0 (antibody, human IgG1, kappa)
heavy 1: not shown
heavy 2: not shown
light: B1 light
notes: also called He Ab K326_19Q

Molecular target: T1, FcγRIIa R (extracellular domain with a …)
Assay: SPR Biacore, relative binding

Ho/Con_2aR	Binder
102 % of GpH7-B3/GpL16-k0 (=100)	B1
105 % of GpH7-B3/GpL16-k0 (=100)	B2
106 % of GpH7-B3/GpL16-k0 (=100)	B3
104 % of GpH7-B3/GpL16-k0 (=100)	B4
110 % of GpH7-B3/GpL16-k0 (=100)	B5
120 % of GpH7-B3/GpL16-k0 (=100)	B6
120 % of GpH7-B3/GpL16-k0 (=100)	B7
131 % of GpH7-B3/GpL16-k0 (=100)	B8
133 % of GpH7-B3/GpL16-k0 (=100)	B9
113 % of GpH7-B3/GpL16-k0 (=100)	B10
105 % of GpH7-B3/GpL16-k0 (=100)	B11
139 % of GpH7-B3/GpL16-k0 (=100)	B12
134 % of GpH7-B3/GpL16-k0 (=100)	B13
107 % of GpH7-B3/GpL16-k0 (=100)	B14
101 % of GpH7-B3/GpL16-k0 (=100)	B15
100 % of GpH7-B3/GpL16-k0 (=100)	B16
122 % of GpH7-B3/GpL16-k0 (=100)	B17
133 % of GpH7-B3/GpL16-k0 (=100)	B18

Molecular target: T2, FcγRIIa H
Assay: SPR Biacore, relative binding

He/Con_2aH	Binder
102 % of GpH7-A5/GpH7-B3/GpL16-k0 (=100)	B19
106 % of GpH7-A5/GpH7-B3/GpL16-k0 (=100)	B20
117 % of GpH7-A5/GpH7-B3/GpL16-k0 (=100)	B21
106 % of GpH7-A5/GpH7-B3/GpL16-k0 (=100)	B22
103 % of GpH7-A5/GpH7-B3/GpL16-k0 (=100)	B23
103 % of GpH7-A5/GpH7-B3/GpL16-k0 (=100)	B24
106 % of GpH7-A5/GpH7-B3/GpL16-k0 (=100)	B25
130 % of GpH7-A5/GpH7-B3/GpL16-k0 (=100)	B26
108 % of GpH7-A5/GpH7-B3/GpL16-k0 (=100)	B27
101 % of GpH7-A5/GpH7-B3/GpL16-k0 (=100)	B28
